Data: patent publication US20120058118A1 (Boehringer Ingelheim, published 2012)
Read-outs that look alike come from different tables or passages of the source.

What was measured:
[1] = molecular target: T1, human A-beta(1-40) peptide, monomeric (BAM) (human, biotin at the C-terminus in capture ELISA, SPR and TR-FRET; not biotinylated where coated directly (Example 7)); assay: TR-FRET competition, mean IC50
T1 construct: synthetic peptide (Anaspec), TFA/HFIP treated to give monomer; also called monomeric A-beta

[2] = molecular target: T1, human A-beta(1-40) peptide, monomeric …; assay: ELISA, format not stated
[3] = molecular target: T1, human A-beta(1-40) peptide, monomeric …; assay: TR-FRET competition; labelled competitor not given
[4] = molecular target: T2, mouse A-beta(1-40) peptide (mouse); assay: ELISA EC50
T2 construct: Bachem peptide coated directly; also called rodent A-beta(1-40)
T2 peptide: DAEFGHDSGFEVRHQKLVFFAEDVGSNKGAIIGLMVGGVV

[5] = molecular target: T1, human A-beta(1-40) peptide, monomeric …; assay: ELISA, peptide coated at 2 µg/ml, anti-myc detection
[6] = molecular target: T2, mouse A-beta(1-40) peptide; assay: as above
[7] = molecular target: T1, human A-beta(1-40) peptide, monomeric …; assay: ABII002 TR-FRET competition assay
soluble APP-alpha = molecular target: T3, soluble APP-alpha (UniProt P05067-4 18-612, limits assumed, biotinylated where used as labelled partner); assay: TR-FRET: competition with labelled ABII320 for biotinylated sAPPalpha; non-labeled ABII035 as competitor; biotinylated sAPPalpha
T3 construct: bought; also called sAPPalpha
T3 sequence (P05067 other isoform, or with tags, fused parts or gaps limits assumed): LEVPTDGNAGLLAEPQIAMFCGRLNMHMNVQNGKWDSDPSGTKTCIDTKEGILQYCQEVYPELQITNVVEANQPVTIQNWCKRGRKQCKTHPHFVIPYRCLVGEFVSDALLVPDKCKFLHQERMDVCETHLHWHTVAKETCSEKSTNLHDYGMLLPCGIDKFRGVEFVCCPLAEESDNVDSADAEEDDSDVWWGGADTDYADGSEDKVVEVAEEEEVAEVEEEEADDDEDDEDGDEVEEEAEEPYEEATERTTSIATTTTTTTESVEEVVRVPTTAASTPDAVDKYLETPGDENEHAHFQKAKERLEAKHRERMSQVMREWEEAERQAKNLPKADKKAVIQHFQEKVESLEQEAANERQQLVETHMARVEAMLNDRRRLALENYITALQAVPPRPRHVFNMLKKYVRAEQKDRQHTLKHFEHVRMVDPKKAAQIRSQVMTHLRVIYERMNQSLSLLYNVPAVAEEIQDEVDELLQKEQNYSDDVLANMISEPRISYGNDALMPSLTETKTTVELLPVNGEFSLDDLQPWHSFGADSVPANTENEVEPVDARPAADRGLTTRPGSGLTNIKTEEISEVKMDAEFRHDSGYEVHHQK
Procedure: Two independent experiments are performed applying a dilution series of the competitor compounds.

[8] = molecular target: T1, human A-beta(1-40) peptide, monomeric …; assay: cell-based or functional assay
[9] = molecular target: T4, human A-beta peptide (residues 1-24) (human); assay: crystal structure
T4 construct: used for co-crystallisation; also called A-beta(1-24)
Procedure: The complex is concentrated by diafiltration to a concentration of 4 mg/ml. Crystallization trials are set up as sitting drop vapour diffusion experiments by mixing 200 nl of protein with 200 nl of reservoir solution against a reservoir volume of 100 μl. […] Data are collected at the beamline 6SA of the swiss light source at the Paul-Scherrer Institute in Villigen, Switzerland.

[10] = molecular target: T1, human A-beta(1-40) peptide, monomeric …; assay: TR-FRET competition, labelled ABII60A10; extrapolated curve
[11] = molecular target: T1, human A-beta(1-40) peptide, monomeric …; assay: TR-FRET competition; extrapolated curve
[12] = molecular target: T5, aggregated A-beta(1-40) peptide (BAA) (human); assay: BAA ELISA
T5 construct: also called A-beta peptide aggregates

[13] = molecular target: T1, human A-beta(1-40) peptide, monomeric …; assay: BAM ELISA
[14] = molecular target: T1, human A-beta(1-40) peptide, monomeric …; assay: BAM ELISA; remark: listed apart in the source
[15] = molecular target: T5, aggregated A-beta(1-40) peptide (BAA); assay: BAA ELISA; remark: listed apart in the source
[16] = molecular target: T1, human A-beta(1-40) peptide, monomeric …; assay: SPR on captured biotinylated A-beta(1-40)
[17] = molecular target: T1, human A-beta(1-40) peptide, monomeric …; assay: SPR, captured C-terminally biotinylated A-beta(1-40)
[18] = molecular target: T1, human A-beta(1-40) peptide, monomeric …; assay: 42D4 TR-FRET assay (labelled ABII42D4)
[19] = molecular target: T1, human A-beta(1-40) peptide, monomeric …; assay: TR-FRET competition
[20] = molecular target: T1, human A-beta(1-40) peptide, monomeric …; assay: 60A10 TR-FRET assay (labelled ABII60A10)
[21] = molecular target: T1, human A-beta(1-40) peptide, monomeric …; assay: TR-FRET competition, labelled ABII60A10
[22] = molecular target: T1, human A-beta(1-40) peptide, monomeric …; assay: ABII050 TR-FRET competition assay
[23] = molecular target: T1, human A-beta(1-40) peptide, monomeric …; assay: ABII42D4 TR-FRET assay
[24] = molecular target: T6, His.Xa.Abeta1-28.GS.p38 fusion protein; assay: size exclusion chromatography, Experion quantification (0.87 µM and 0.86 µM)
T6 construct: His-tag, factor Xa site, A-beta(1-28), GS linker, murine p38 alpha; the SEC experiment names it only A-beta(1-28)-p38 fusion protein; also called A-beta(1-28)-p38 fusion protein; A-beta-p38 fusion protein
T6 chain: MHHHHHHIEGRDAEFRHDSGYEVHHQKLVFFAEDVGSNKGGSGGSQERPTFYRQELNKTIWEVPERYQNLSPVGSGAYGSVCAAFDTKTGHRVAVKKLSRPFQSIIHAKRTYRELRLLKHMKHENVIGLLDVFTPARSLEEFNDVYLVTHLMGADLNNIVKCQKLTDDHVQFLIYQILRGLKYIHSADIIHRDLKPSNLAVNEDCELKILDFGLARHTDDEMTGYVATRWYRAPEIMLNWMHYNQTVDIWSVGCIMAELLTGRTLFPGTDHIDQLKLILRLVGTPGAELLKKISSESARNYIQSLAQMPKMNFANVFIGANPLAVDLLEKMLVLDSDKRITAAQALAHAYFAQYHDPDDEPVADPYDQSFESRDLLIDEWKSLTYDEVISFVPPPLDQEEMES
Procedure: Determination of the binding mode using size exclusion chromatography: Size exclusion chromatography (SEC) separates molecules according to differences in size as they pass through a gel filtration medium packed in a column. The binding mode of biparatopic VHH constructs to their target can be identified by analysing the protein complex after incubating a 1:2 molar ratio of the respective VHH construct and the target protein. Therefore the mixture will be separated by SEC and the contents of the resulting peaks is analyzed by protein gel electrophoresis. […] The gel filtration produced two peaks which are further analyzed by SDS-PAGE using the automated electrophoresis station Experion (Bio-Rad, USA) and the appropriate chip (Pro260 Chip, Bio-Rad, USA).

[25] = molecular target: T7, pGlu-A-beta(1-28), C-terminally biotinylated (human, pyroglutamate formed from the glutamate at position 3 (N-terminus); biotin at the C-terminus); assay: SPR on captured C-terminally biotinylated pGlu-A-beta(1-28), 1:1 model
T7 construct: printed as pGlu-A-beta(1-28), while the text says that the first two N-terminal residues are missing; range 3-28 is my reading; also called pyroglutamyl-Abeta
Source text: Association and dissociation curves can be fitted using a 1:1 interaction model and an accurate KD value can be determined.

A-beta(1-28) peptide = molecular target: T8, A-beta(1-28) peptide (human); assay: KinExA, A-beta(1-28) in solution; PEGylated ABII322
T8 construct: Anaspec peptide, solution antigen in KinExA
Procedure: The KinExA experiments are conducted with a KinExA 3000 and the KinExA Pro software (Sapidyne Instruments Inc., USA) at room temperature (ca. 21° C.). PBS with 0.02% NaN₃ is used as running buffer. For all experiments, antigen is serially diluted into PBS with 0.1% BSA and 0.02% NaN₃ having a constant VHH concentration. The mixtures of antigen and VHH are incubated for 24 h at room temperature prior to measurement. The flow rate of the samples and the labeling antibody for all experiments is 0.25 ml/min.
This antibody is used at a volume of 500 μl and a concentration of 0.5 μg/ml in PBS with 0.1% BSA and 0.02% NaN₃.
The equilibrium titration data are fit to a 1:1 binding model using KinExA Pro software Version 1.0.3 (Sapidyne Instruments Inc., USA). […] The sample volume is 5 ml each. […] The sample volume is 11 ml each.

B1: ABII035 (VHH)
VHH: EVQLLESGGGLVQPGGSLRLSCVHSGPTFRTDTMGWFRQAPGKGREFVAAVTWNSGRINYADSVKGRFTISRDNSKNTAYLQMNSLRPEDTAVYYCAAHRFVVGGNRVEDWRYWGQGTLVTVSS
notes: humanized variant of ABII002
- IC50 [1]: 4 nM
- fold difference of EC50 against the 2D2 and 2G6 VHHs [2]: > 50 fold
- IC50 [3]: 4 nM
- fold difference mouse against human A-beta [4]: 2.2 fold
- EC50 [5]: 2.5 nM
- EC50 [6]: 5.7 nM
- IC50 [7]: 3.5 nM
- IC50 (soluble APP-alpha): 25.6 nM
- Aggregation inhibition (% inhibition at 26 µM) [8]: 54%
- binding result [9]: binds

B2: reference VHH 2D2 (VHH)
VHH: AVQLVDSGGGLVQAGGSLRLSCAVSGGTFSSIGMGWFRQAPGKEREFVGAISRSGDSTYYADSVKGRFTISRDGAKNTVYLQMNSLKDEDTAVYYCAGRPAGTAINIRRSYNYWGQGTQVTVSS
notes: from WO2006/40153, made and purified like the other VHHs
- IC50 [10]: 404 nM
- IC50 [11]: 404 nM
- EC50 [12]: 4.7 nM
- EC50 [13]: 15.8 nM
- Aggregation inhibition (% inhibition at 26 µM) [8]: 69%
- EC50 [14]: 15.8 nM
- EC50 [15]: 4.7 nM

B3: Fab fragment of monoclonal antibody m266 (Fab, V domains shown)
VH: EVKLVESGGGLVQPGGSLKLSCAVSGFTFSRYSMSWVRQTPEKRLELVAQINSVGNSTYYPDTVKGRFTISRDNAEYTLSLQMSGLRSDDTATYYCASGDYWGQGTTLTVSS
VL: DVVMTQTPLSLPVSLGDQASISCRSSQSLIYSDGNAYLHWFLQKPGQSPKLLIYKVSNRFSGVPDRFSGSGSGTDFTLKISRVETEDLGVYFCSQSTHVPWTFGGGTKLEIK
notes: also called Fab266; m266Fab
- koff [16]: 4e-05 s⁻¹
- Kd [17]: 0.3 nM
- IC50 [18]: > 1000 nM
- EC50 [12]: 1.8 nM
- IC50 [19]: 0.52 nM
- EC50 [13]: 1.8 nM
- IC50 [20]: 2.3 nM
- Aggregation inhibition (% inhibition at 26 µM) [8]: 82%
- IC50 [21]: 0.52 nM
- IC50 [22]: 0.52 nM
- EC50 [14]: 1.8 nM
- EC50 [15]: 1.8 nM

B4: ABII42D4-9GS-ABII42D4 (designed binder)
chain: EVQLVESGGGLVLAGGSLRLSCVHSGPTFSTDTMGWFRQAPGKEREFVAAVTWNSGRTNYADSVKGRFTVSRDNTRNAAYLQMSGLKDEDTAVYYCTAHRLVVGGTSVGDWRYWGQGTQVTVSSGGGGSGGGGEVQLVESGGGLVLAGGSLRLSCVHSGPTFSTDTMGWFRQAPGKEREFVAAVTWNSGRTNYADSVKGRFTVSRDNTRNAAYLQMSGLKDEDTAVYYCTAHRLVVGGTSVGDWRYWGQGTQVTVSS
notes: VHH dimer with two identical domains; also called bivalent ABII42D4
- IC50 [18]: 16 nM
- IC50 [20]: > 1000 nM
- fold improved IC50 against monovalent ABII42D4 [23]: 3.2 fold

B5: 60A10-27GS-42D4-Alb (designed binder)
chain: EVQLVESGGGLVQAGGSLRLSCAASGRTFNNYNMGWFRQAPGKEREFVAAVSRSGVSTYYADSVKGRFTISRDNAKNAVYLQMNSLKPEDTAIYYCGAAYRGTAINVRRSYDSWGQGTQVTVSSGGGSGGGGSGGGGSGGGGSGGGGSGGGEVQLVESGGGLVLAGGSLRLSCVHSGPTFSTDTMGWFRQAPGKEREFVAAVTWNSGRTNYADSVKGRFTVSRDNTRNAAYLQMSGLKDEDTAVYYCTAHRLVVGGTSVGDWRYWGQGTQVTVSS
notes: calculated molecular weight 95 kDa; also called biparatopic VHH fused to human serum albumin; not shown: human serum albumin, fused C-terminally
- ratio of A-beta(1-28)-p38 to 60A10-27GS-42D4-Alb in the complex [24]: ~1

B6: ABII322-PEG40 (designed binder)
chain: VQLLESGGGLVQPGGSLRLSCAASGRTFNNYNMGWFRQAPGKGREFVAAVSRSGVSTYYADSVKGRFTISRDNSKNTVYLQMNSLRPEDTAVYYCAAAYRGTAINVRRSYSSWGQGTLVTVSSGGGSGGGGSGGGGCGGGGSGGGGSGGGEVQLLESGGGLVQPGGSLRLSCVHSGPTFRTDTMGWFRQAPGKGREFVAAVTWNSGRINYADSVKGRFTISRDNSKNTAYLQMNSLRPEDTAVYYCAAHRFVVGGNRVEDWRYWGQGTLVTVSS
modifications: PEG40 on the Cys at position 14 of the 27GS linker
notes: 059-27GSC-035; also called PEGylated ABII322 VHH construct; biparatopic PEGylated VHH ABII322
- IC50 [7]: 0.14 nM
- IC50 [22]: 0.17 nM
- Kd [25]: 1 nM
- Kd (A-beta(1-28) peptide): 0.6 pM
